Assay results as given in PMC2722044.

Tests used:
[1] = target: VLRB.2DMut13, in vitro affinity-matured variant of VLRB.2D (lamprey); assay: ITC
[2] = target: VLRB.2D, lamprey variable lymphocyte receptor B specific for hen egg white lysozyme (lamprey); assay: ITC

- Kd [1]: 34 nM
- Kd [2]: 430 nM
Substance: hen egg white lysozyme (from UniProt P00698 19-147) (enzyme)
